Assay results from paper PMC11192940.

Target: GST-Rheb protein (UniProt Q15382)
Experiment: BLI

GST-Rheb protein, sequence (Q15382 1-169): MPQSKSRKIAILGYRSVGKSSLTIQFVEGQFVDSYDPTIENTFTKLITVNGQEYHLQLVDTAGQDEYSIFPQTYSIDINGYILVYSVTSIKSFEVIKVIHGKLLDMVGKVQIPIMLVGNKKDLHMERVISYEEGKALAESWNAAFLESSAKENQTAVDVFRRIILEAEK

Kd: 54.2 nM
Substance: His-IL-37d, recombinant human IL-37d protein with a TAT peptide (pET-22b-TAT-his-IL-37d; mature IL-37d 21–197aa) (from UniProt Q9NZH6-4 21-197)
